In patent publication US20220135655A1:

Target: H5VN04 recombinant trimeric hemagglutinin (HA) (influenza A virus H5VN04 (H5N1))

Substance	fold reduction of binding against CR6261 [fold]	fold reduction of binding against F10 [fold]
CR6261 F54A scFv	800	
CR6261 Y98A scFv	> 4000	
F10 Y98A scFv		> 3000
